From patent CN109879965A

Biological target: CD3E on human peripheral blood T lymphocytes (human) (UniProt P07766)
Assay: cell-based or functional assay

Chain of CD3E on human peripheral blood T lymphocytes (human) (P07766 23-207): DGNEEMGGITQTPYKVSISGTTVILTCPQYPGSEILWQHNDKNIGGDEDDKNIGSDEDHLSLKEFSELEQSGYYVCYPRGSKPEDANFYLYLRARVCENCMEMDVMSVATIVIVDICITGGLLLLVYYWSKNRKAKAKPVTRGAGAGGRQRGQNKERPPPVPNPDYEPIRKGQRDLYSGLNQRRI

- IL-2 in the supernatant of PBMC after 48 h on plate-coated antibody (1 μg/mL), IL-2 ELISA: 400 pg/mL
Substance: OKT3 (antibody)
